Laboratory results as given in the Human Domainome abundance scans (Beltran et al. 2025).
± gives the uncertainty stated by the source.

B1: Zinc finger protein ZIC 2, residues 250 to 295; numbered along this chain, O95409 (parent)
chain: QCIKQELICKWIDPEQLSNPKKSCNKTFSTMHELVTHVSVEHVGGP

Variants of: B1
Experiment: abundance fitness (aPCA) (normalised: wild type 0, dead -1); higher = more abundant; growth selection in yeast, the domain comes from the species named
Settings: Homo sapiens

| Variant | abundance fitness |
| --- | --- |
| QCIKQELICKWIDPEQLSNPEKSCNKTFSTMHELVTHVSVEHVGGP | 0.078 ± 0.1 |
| HCIKQELICKWIDPEQLSNPKKSCNKTFSTMHELVTHVSVEHVGGP | -0.101 ± 0.16 |
| KCIKQELICKWIDPEQLSNPKKSCNKTFSTMHELVTHVSVEHVGGP | -0.455 ± 0.25 |
| PCIKQELICKWIDPEQLSNPKKSCNKTFSTMHELVTHVSVEHVGGP | -0.915 ± 0.24 |
| QCIKQELICKWIDPEQLSNPKKWCNKTFSTMHELVTHVSVEHVGGP | -0.01 ± 0.088 |
| QCIKQELICKWIDPEQLSNPKKGCNKTFSTMHELVTHVSVEHVGGP | 0.111 ± 0.084 |
| QCIKQELICKWIDPEQLSNPKKQCNKTFSTMHELVTHVSVEHVGGP | 0.226 ± 0.1 |
| QCIKQELICKWIDPEQLSNPKKSCNKTFSTMHELVTHDSVEHVGGP | -0.159 ± 0.1 |
| QCIKQELICKWIDPEQLSNPKKSCNKTFSTMHELVTHLSVEHVGGP | -0.165 ± 0.091 |
| QCIKQELICKYIDPEQLSNPKKSCNKTFSTMHELVTHVSVEHVGGP | 0.005 ± 0.11 |
| QQIKQELICKWIDPEQLSNPKKSCNKTFSTMHELVTHVSVEHVGGP | 0.127 ± 0.12 |
| QLIKQELICKWIDPEQLSNPKKSCNKTFSTMHELVTHVSVEHVGGP | 0.73 ± 0.09 |
| QCIKQELICDWIDPEQLSNPKKSCNKTFSTMHELVTHVSVEHVGGP | 0.018 ± 0.1 |
| QCIKQELICGWIDPEQLSNPKKSCNKTFSTMHELVTHVSVEHVGGP | -0.138 ± 0.085 |
| QCIKQELICQWIDPEQLSNPKKSCNKTFSTMHELVTHVSVEHVGGP | 0.205 ± 0.1 |
| QCIKQELICKWIDPEQLSNPKKSCNKTFSFMHELVTHVSVEHVGGP | -0.254 ± 0.14 |
| QCIKQELICKWPDPEQLSNPKKSCNKTFSTMHELVTHVSVEHVGGP | 0.018 ± 0.1 |
| QCIKQELICKWTDPEQLSNPKKSCNKTFSTMHELVTHVSVEHVGGP | 0.041 ± 0.097 |
| QCIKQELICKWMDPEQLSNPKKSCNKTFSTMHELVTHVSVEHVGGP | -0.077 ± 0.11 |
| QCIKQELICKWIDPEQLSNPKKSCNKTFSTMHELVTHVSVSHVGGP | 0.032 ± 0.087 |
| QCIKQELICKWIDPEQLSNPKKSCNKTFSTMHELVTHVSVGHVGGP | -0.279 ± 0.087 |
| QCIKQELICKWIDPEQLSNPKKSCNKTFSTMHELVTHVSVYHVGGP | -0.226 ± 0.12 |
| QCIKQELICKWIDPEQLSNPKKSCNKTFSTMHELVTHVSVQHVGGP | 0.084 ± 0.098 |
| QCIKQELIAKWIDPEQLSNPKKSCNKTFSTMHELVTHVSVEHVGGP | -0.651 ± 0.091 |
| QCIKQELICKWIDPEQLSNPKKSCNKTFSTMHELVAHVSVEHVGGP | -0.178 ± 0.091 |
| QCIKQELICKWIDPEQLSNPKKSCNKTFSTMHELVDHVSVEHVGGP | -0.068 ± 0.1 |
| QCIKQELICKWIQPEQLSNPKKSCNKTFSTMHELVTHVSVEHVGGP | -0.492 ± 0.12 |

| Variant | abundance fitness |
| --- | --- |
| QCIKQELICKWIDPEQLSNPKKSCDKTFSTMHELVTHVSVEHVGGP | -0.047 ± 0.11 |
| QCIKQELICKWIDPEQLSNPKKSCNKTFSTMHEQVTHVSVEHVGGP | -0.48 ± 0.12 |
| QCIKFELICKWIDPEQLSNPKKSCNKTFSTMHELVTHVSVEHVGGP | -0.612 ± 0.097 |
| QCIKLELICKWIDPEQLSNPKKSCNKTFSTMHELVTHVSVEHVGGP | -0.661 ± 0.089 |
| QCIKWELICKWIDPEQLSNPKKSCNKTFSTMHELVTHVSVEHVGGP | -0.777 ± 0.14 |
| QCIKMELICKWIDPEQLSNPKKSCNKTFSTMHELVTHVSVEHVGGP | -0.688 ± 0.11 |
| QCIKKELICKWIDPEQLSNPKKSCNKTFSTMHELVTHVSVEHVGGP | 0.05 ± 0.11 |
| QCIKQELICKWIDPEQLSNPKKSCNKTKSTMHELVTHVSVEHVGGP | -0.471 ± 0.11 |
| QCIKQELICKWIDPEQLSPPKKSCNKTFSTMHELVTHVSVEHVGGP | -0.104 ± 0.1 |
| QCIKQELICKWIDPEQLSNPKKSCNKTFSTMHELYTHVSVEHVGGP | 0.296 ± 0.1 |
| QCIKQELICKWIDPEQLSNPKKSCNKTFSTMHELATHVSVEHVGGP | -0.04 ± 0.088 |
| QCIKQELICKWIDPEQLSNPKKSCNKTFSTMHELNTHVSVEHVGGP | 0.761 ± 0.1 |
| QCIKQELICKWIDPEQLSNPKKSCNKTFSTMHELKTHVSVEHVGGP | 0.446 ± 0.097 |
| QCIMQELICKWIDPEQLSNPKKSCNKTFSTMHELVTHVSVEHVGGP | -0.105 ± 0.11 |
| QCIKQELTCKWIDPEQLSNPKKSCNKTFSTMHELVTHVSVEHVGGP | 0.041 ± 0.1 |
| QCIKQELCCKWIDPEQLSNPKKSCNKTFSTMHELVTHVSVEHVGGP | -0.177 ± 0.1 |
| QCIKQELICKWIDPEQLSNPKKSCNKTFITMHELVTHVSVEHVGGP | -0.356 ± 0.14 |
| QCIKQELICKWIDPEQLSNPKKSCNKTFQTMHELVTHVSVEHVGGP | 0.114 ± 0.11 |
| QCIKQELICKWIDPEQLSNPKKSCNKTFFTMHELVTHVSVEHVGGP | -0.215 ± 0.1 |
| QCIKQELICKWIDPEQLSNPKKSCNKTFCTMHELVTHVSVEHVGGP | -0.337 ± 0.094 |
| QCIKQELICKWIDPEQLSNPKKSCNKTFSTMHELVTKVSVEHVGGP | -0.806 ± 0.15 |
| QCIKQELICKWIDPEQLSNPKKSCNKTFSTMHELVTNVSVEHVGGP | -0.747 ± 0.19 |
| QCIKQELICKWIDPEQLSNPKKSCNKTFSTMHELVTLVSVEHVGGP | -0.741 ± 0.11 |
| QCIKQELICKWIDPEQLSNPKKSCNKTFSTMHELVTHVSVEHQGGP | 0.116 ± 0.095 |
| QCIKQELICKWIDPEQLSNPKKSCNKTFSTMHRLVTHVSVEHVGGP | -0.69 ± 0.09 |
| QCIKQELICKWIDPEQLSNPKKSCNKTFSTMHQLVTHVSVEHVGGP | -0.046 ± 0.11 |
| QCIKQELICKWIDPEQLSNPKKSCNKTFSTMHDLVTHVSVEHVGGP | 0.086 ± 0.1 |
